Here are results for two molecules from US20260193377A1 (FULL LIFE TECHNOLOGIES HK, published 2026).

Experiment [1] has as its target T1, Human GUCY2C (captured on anti-human Fc capturing antibody, SPR) (human).
T1 construct: also called human GCC; guanylyl cyclase C
Briefly: SPR (Biacore T200), human GUCY2C captured via anti-human Fc, sdAb as analyte, 1:1 fit. The protocol: Anti-GCC sdAbs were diluted with 1×HBS-EP buffer. Human GUCY2C was captured on anti-human Fc capturing Ab-immobilized sCM5 chip. Then anti-GCC sdAb samples were injected with a flow rate of 10 μl/min for 180 sec, followed by dissociation for 800 sec. The binding curves were locally fitted with Biacore® T200 analysis software (BIAevaluation) using a 1:1 Langmuir binding model.

For experiment [2], the target named is T2, GCC expressed on T84 cells (UniProt P25092 24-1073, limits assumed).
T2 construct: whole, on cells; also called guanylyl cyclase C; GUCY2C
T2 sequence (P25092 24-1073 limits assumed): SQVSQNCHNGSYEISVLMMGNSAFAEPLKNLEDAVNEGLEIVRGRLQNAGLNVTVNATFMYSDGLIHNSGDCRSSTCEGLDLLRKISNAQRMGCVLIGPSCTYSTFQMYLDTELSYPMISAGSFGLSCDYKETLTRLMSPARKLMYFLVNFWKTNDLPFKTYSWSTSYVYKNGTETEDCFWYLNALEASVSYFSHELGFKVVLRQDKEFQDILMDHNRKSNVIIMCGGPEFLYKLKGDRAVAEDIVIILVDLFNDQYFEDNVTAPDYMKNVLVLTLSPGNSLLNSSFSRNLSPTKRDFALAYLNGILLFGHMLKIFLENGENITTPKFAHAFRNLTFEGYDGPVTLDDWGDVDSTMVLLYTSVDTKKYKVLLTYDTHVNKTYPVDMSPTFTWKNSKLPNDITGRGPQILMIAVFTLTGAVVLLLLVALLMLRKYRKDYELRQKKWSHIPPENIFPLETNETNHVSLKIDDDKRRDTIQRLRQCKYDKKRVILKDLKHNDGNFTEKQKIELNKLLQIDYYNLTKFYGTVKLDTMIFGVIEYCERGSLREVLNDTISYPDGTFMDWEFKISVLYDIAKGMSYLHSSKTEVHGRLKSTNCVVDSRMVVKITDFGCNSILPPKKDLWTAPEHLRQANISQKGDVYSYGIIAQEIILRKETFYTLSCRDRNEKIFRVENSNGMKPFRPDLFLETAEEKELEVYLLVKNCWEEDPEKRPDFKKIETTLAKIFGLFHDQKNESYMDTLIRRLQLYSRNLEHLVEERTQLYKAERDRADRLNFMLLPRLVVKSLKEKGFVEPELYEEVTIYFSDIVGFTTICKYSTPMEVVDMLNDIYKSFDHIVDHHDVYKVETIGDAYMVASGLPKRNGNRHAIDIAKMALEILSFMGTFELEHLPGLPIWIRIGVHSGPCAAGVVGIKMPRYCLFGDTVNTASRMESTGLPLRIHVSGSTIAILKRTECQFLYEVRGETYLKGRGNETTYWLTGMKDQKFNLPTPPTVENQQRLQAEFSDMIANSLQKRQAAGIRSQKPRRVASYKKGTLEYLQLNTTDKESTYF
Briefly: flow cytometry on T84 cells expressing GCC, 300 nm [sic], PE-anti human Fc secondary; Blank 30.7. How it is done: T84 cells expressing GCC were used to evaluate the binding affinity of the anti-GCC sdAbs. Briefly, 50 μL T84 cells at density of 3×10⁶ cells/mL were incubated with 50 μL anti-GCC sdAbs at 4° C. for 2 hours. After incubation, the cells were washed three times with 400 μL FACS buffer, resuspended with PE-anti human Fc 2nd antibody (eBioscience 12-4998-82, 1:1000 dilution) and incubated at 4° C. for 60 min. Then the cells were collected and subject to FACS analysis.
On the technique in general: Flow cytometry measures light scatter and fluorescence of single cells or particles in a stream.

T1 sequence (P25092 24-430): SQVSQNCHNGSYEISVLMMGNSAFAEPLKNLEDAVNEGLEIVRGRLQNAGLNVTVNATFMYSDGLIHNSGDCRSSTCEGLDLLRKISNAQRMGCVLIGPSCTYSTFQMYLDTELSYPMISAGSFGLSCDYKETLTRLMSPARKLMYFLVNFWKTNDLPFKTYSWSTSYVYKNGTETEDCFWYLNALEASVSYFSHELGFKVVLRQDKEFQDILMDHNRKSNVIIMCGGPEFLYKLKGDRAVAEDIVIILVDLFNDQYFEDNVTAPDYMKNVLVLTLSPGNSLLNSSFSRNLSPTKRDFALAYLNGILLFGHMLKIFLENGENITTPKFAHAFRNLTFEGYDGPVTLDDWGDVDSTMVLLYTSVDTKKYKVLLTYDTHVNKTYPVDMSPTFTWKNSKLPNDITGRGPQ

B1: anti-GCC single domain antibody SEQ ID NO. 8 (VHH)
VHH: EVDLVESGGGLVQPGGSLRLSCGASGFTFSHYAMSWVRQAPGKALEWVSDISSGGGITKYADSVKGRFTISRDDAQNTLYLQMNSLKPEDTAVYYCAKASAIGYLAYWMRNPVEYDTRGQGTLVTVSS
notes: Alpaca-derived sdAb
As a reminder, the Kd is the equilibrium constant for the complex coming apart. A high value points to weaker binding. A word on the koff: it is a measure of how fast the partners let go of each other. The term kon denotes the rate constant with which the complex forms. A higher kon goes with faster complex formation. As to B1, in experiment [1], binding was characterised by a dissociation constant (Kd) of 0.0259 nM, the koff amounted to 6.7e-05 s⁻¹ and the kon turned out to be 2.59e+06 M⁻¹ s⁻¹. Further, in experiment [2], the “Geometric mean MFI” value amounted to 669.

B2: anti-GCC single domain antibody SEQ ID NO. 9 (VHH)
VHH: QKQLVESGGGLVQPGGSLRLSCAASGETLSNYNIGWFRQAPGKEREGVSCISQIGFTNYADSVKGRFTLFRASAENTVYLQMNSLKPEDTAVYYCAVTGGRWASCSFLPLRQDFESWGQGTLVTVSS
notes: Alpaca-derived sdAb
In the case of B2, in experiment [1], the Kd turned out to be 0.116 nM, the koff stood at 0.00103 s⁻¹ and the kon was 8.84e+06 M⁻¹ s⁻¹. The “Geometric mean MFI” value in experiment [2] is 447.
